Test results taken from PMC8698692, “Generation of a Novel High-Affinity Antibody Binding to PCSK9 Catalytic Domain with Slow Dissociation Rate by CDR-Grafting, Alanine Scanning and Saturated Site-Directed Mutagenesis for Favorably Treating Hypercholesterolemia” (Biomedicines, 2021).
Changes are numbered by the printed parent chain. Values belong to the binder of their own block, whether it stands above or below them.

Tests used:
[1] = target: T1, human proprotein convertase subtilisin/kexin type 9 (hPCSK9), recombinant (Homo sapiens, UniProt Q8NBP7, biotinylated with a biotinylation kit for the BLI assay only (sites not given)); assay: BLI; ForteBio Octet QKe; biotinylated hPCSK9 (50 μg/mL) immobilised on streptavidin biosensors; 2-fold dilutions of antibody (scFvs 6000-93.75 nM, mAbs 800-12.5 nM), association 300 s or longer, dissociation 600 s in SD buffer (PBS, 0.02% Tween 20, 0.1% BSA, pH 7.4); global fit; details: both partners purified
T1 construct: signal peptide in the construct; source: CHO-3E7, transiently transfected (pTT5-hPCSK9), supernatant purified (Ni-IMAC, Superdex 200 SEC)
T1 sequence (Q8NBP7 31-692): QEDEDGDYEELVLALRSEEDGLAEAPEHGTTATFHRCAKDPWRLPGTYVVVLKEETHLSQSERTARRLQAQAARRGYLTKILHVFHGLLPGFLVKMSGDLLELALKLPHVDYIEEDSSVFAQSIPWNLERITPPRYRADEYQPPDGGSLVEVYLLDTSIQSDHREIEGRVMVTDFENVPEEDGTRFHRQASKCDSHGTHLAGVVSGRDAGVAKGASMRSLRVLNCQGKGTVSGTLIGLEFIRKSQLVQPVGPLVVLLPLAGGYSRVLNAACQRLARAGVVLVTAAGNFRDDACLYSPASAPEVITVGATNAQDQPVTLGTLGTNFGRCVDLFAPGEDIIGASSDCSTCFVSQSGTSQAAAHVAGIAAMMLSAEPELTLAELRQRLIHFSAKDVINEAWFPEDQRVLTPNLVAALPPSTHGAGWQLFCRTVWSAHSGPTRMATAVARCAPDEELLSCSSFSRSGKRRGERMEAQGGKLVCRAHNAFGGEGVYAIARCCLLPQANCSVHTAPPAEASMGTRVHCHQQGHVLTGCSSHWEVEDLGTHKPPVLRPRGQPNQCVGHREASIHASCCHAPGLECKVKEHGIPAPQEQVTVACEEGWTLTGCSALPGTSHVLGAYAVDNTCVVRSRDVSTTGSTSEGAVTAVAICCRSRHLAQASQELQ

[2] = target: T1, human proprotein convertase …; assay: ELISA; non-competitive ELISA; hPCSK9 coated at 1 μg/mL and 2 μg/mL; purified m5E12 at 10^-1 to 10^5 ng/mL; HRP goat anti-mouse IgG; Kaff = (n − 1)/2(n[Ab']t − [Ab]t); details: both partners purified

Kd [1]: 171 nM
koff [1]: 0.00108 s⁻¹
B1: h5E12scFv, humanized 5E12 scFv by CDR grafting without back mutation (scFv, V domains shown)
VH: QVQLVQSGAEVKKPGASVKVSCKASGYTFTSYWMHWVRQAPGQGLEWMGEINPSNGRTDHSEKFKNRVTMTRDTSTSTVYMELSSLRSEDTAVYYCARFHYDYDYFDYWGQGTLVTVSS
VL: DIVMTQSPSSLSASVGDRVTITCKASRNVGNSVGWYQQKPGKAPKLLIYSASYRYSGVPSRFSGSGSGTDFTLTISSLQPEDFATYYCQQYNRYPLTFGQGTKVEIK
notes: VH of h5E12scFv: CDRs of m5E12 grafted onto the human heavy chain GenBank AMK70123.1; (Gly4Ser)3 linker; the format VH-(Gly4Ser)3-VL is told for m5E12scFv, of which this is the humanized form; VL of h5E12scFv: CDRs of m5E12 grafted onto the human light chain GenBank APZ85158.1; Cloned in pET-27b with the pelB signal peptide; isolated from the periplasm; source: E. coli BL21 (DE3), periplasm, …

koff [1]: 0.01 s⁻¹
B2: h5E12scFv-bm, humanized 5E12 scFv by CDR grafting with back mutation (scFv, V domains shown)
VH: B1 VH with Q1E, R38K, M48I, R67K, V68A, R72V, V79A, M81L, A92S
VL: B1 VL with M4I, P8T, L46I, P59H, T85E, Y87F, Q100E
notes: (Gly4Ser)3 linker; the format VH-(Gly4Ser)3-VL is told for m5E12scFv, of which this is a humanized form; Cloned in pET-27b with the pelB signal peptide; isolated from the periplasm; source: E. coli BL21 (DE3), periplasm, purified (Ni-NTA, Superdex 75 SEC)

koff [1]: 0.00744 s⁻¹
B3: m5E12scFv, murine 5E12 single-chain variable fragment (scFv, V domains shown)
VH: EVQLEQSGAELVKPGASVKLSCKASGYTFTSYWMHWVKQRPGQGLEWIGEINPSNGRTDHSEKFKNKATLTVDKSSTTAYLQLSSLTSEDSSVYYCARFHYDYDYFDYWGQGTTLTVSS
VL: DIVITQSTKFMSTSVGDRVSVTCKASRNVGNSVGWYQQKPGQSPKILIYSASYRYSGVHDRFTGSGSGTDFTLTISNVQSEDLAEYFCQQYNRYPLTFGEGTKLELK
notes: VH of m5E12; (Gly4Ser)3 linker between VH and VL; VL of m5E12; Cloned in pET-27b with the pelB signal peptide; isolated from the periplasm; also called murine 5E12 scFv; source: E. coli BL21 (DE3), periplasm, purified (Ni-NTA, Superdex 75 SEC)

Ka [2]: 1.04e+09 M⁻¹
B4: m5E12, murine monoclonal antibody against hPCSK9 (IgG1, kappa) (antibody, V domains shown)
VH: B3 VH
VL: B3 VL
notes: VH of m5E12; mouse IgG1 heavy-chain constant region (isotype found with a kit; BALB/c mice); VL of m5E12; mouse kappa light-chain constant region (isotype found with a kit); Mouse IgG1 kappa; also called mAb 5E12; source: hybridoma 5E12 supernatant (screening ELISA); mouse ascites, purified (protein A)
